T1: WT-1 (Wilms tumor protein 1) peptide on HLA-A*02:01 (human)
T1 peptide: RMFPNAPYL


Target: T1, WT-1 (Wilms tumor protein 1) peptide on …
Test: multimer staining

Row | binding result | Binder
1 | recognises | TCR #10 (TCR, V domains shown) Valpha: AQTVTQSQPEMSVQEAETVTLSCTYDTSESNYYLFWYKQPPSRQMILVIRQEAYKQQNATENRFSVNFQKAAKSFSLKISDSQLGDTAMYFCAFNPWENYGQNFVFGPGTRLSVLP Vbeta: GAVVSQHPSWVICKSGTSVKIECRSLDFQATTMFWYRQFPKQSLMLMATSNEGSKATYEQGVEKDKFLINHASLTLSTLTVTSAHPEDSSFYICSARPHSLTDTQYFGPGTRLTVL
2 | recognises | TCR #6 (TCR, V domains shown) Valpha: EDQVTQSPEALRLQEGESSSLNCSYTVSGLRGLFWYRQDPGKGPEFLFTLYSAGEEKEKERLKATLTKKESFLHITAPKPEDSATYLCAVQTMDGNQFYFGTGTSLTVIP Vbeta: NAGVTQTPKFQVLKTGQSMTLQCAQDMNHEYMSWYRQDPGMGLRLIHYSVGAGITDQGEVPNGYNVSRSTTEDFPLRLLSAAPSQTSVYFCASSYSLWDLQETQYFGPGTRLLVL
